This data set addresses survivin;borealin 10-109;INCENP 1-80 (CPI80) (human;human;human) (UniProt O15392+Q53HL2+Q9NQS7). Kind of data set: EMSA. Conditions: shift between 2 and 3 uM protein; 100 mM NaCl, 20 mM Tris-HCl pH 7.4, 1 mM DTT, 2 h on ice; MST 0.04 uM duplex, 0.1-200 uM protein; EMSA 0.15 pmol plasmid in 20 ul, 0.8% agarose. In general terms: In EMSA bound probe runs differently from free probe, usually more slowly.

Sequence of survivin;borealin 10-109;INCENP 1-80 (CPI80) (human;human;human) (O15392 whole entry, chain 1 of 3): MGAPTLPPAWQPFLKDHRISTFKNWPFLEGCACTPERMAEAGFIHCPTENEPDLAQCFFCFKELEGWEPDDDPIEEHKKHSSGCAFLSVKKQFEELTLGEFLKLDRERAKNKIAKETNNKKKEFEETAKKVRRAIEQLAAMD
Sequence of survivin;borealin 10-109;INCENP 1-80 (CPI80) (human;human;human) (Q53HL2 10-109, chain 2 of 3): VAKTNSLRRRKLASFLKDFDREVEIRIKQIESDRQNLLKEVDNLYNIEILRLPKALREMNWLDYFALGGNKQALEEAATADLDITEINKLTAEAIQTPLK
Sequence of survivin;borealin 10-109;INCENP 1-80 (CPI80) (human;human;human) (Q9NQS7 1-80, chain 3 of 3): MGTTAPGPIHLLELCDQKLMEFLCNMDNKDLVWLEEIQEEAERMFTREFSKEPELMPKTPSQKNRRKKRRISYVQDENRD

For BamHI-linearized pBluescript (2.9 kb), the K half is 3000 nM.

(Values after article PMC7337490.)
